Reference: PMC12450638 (The Journal of Biological Chemistry, 2025)

Molecular target: T1, β2m of the single-chain construct (Homo sapiens (Human)., UniProt P61769)
T1 construct: β2-microglobulin; In the cryo-EM sample it is the middle part of m3; also called B2m; source: part of the single-chain construct m3
Assay: cryo-EM structure; single-chain P2R-linker-β2m-linker-B∗73:01 copurified with Fabs B.1 and B.8; Hepes-buffered saline pH 7.2, about 0.07 mM fluorinated octyl maltoside; 3.1 Å
Details: both partners purified

T1 sequence (P61769 21-119): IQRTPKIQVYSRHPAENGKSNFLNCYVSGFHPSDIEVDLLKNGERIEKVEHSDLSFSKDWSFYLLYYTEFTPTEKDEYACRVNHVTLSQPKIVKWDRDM

B1: Fab B.1 (Fab, V domains shown)
VH: EVQLVESGGGLVQPGGSLRLSCAASGFNVSYYSIHWVRQAPGKGLEWVASISPYSGSTSYADSVKGRFTISADTSKNTAYLQMNSLRAEDTAVYYCARYSYGNSWSYDPYYGAMDYWGQGTLVTVSS
VL: DIQMTQSPSSLSASVGDRVTITCRASQSVSSAVAWYQQKPGKAPKLLIYSASSLYSGVPSRFSGSRSGTDFTLTISSLQPEDFATYYCQQYYWAPITFGQGTKVEIK
notes: synthetic Fab; model deposited in PDB 8TNJ (constant domain portion not visible in the map)
- binding result: binds
